Test results published in patent publication US20250368734A1 (ANTENGENE BIOLOGICS, published 2025).
Read-outs that look alike come from different tables or passages of the source.

T1: mouse GPRC5D (mouse, UniProt Q9JIL6 1-344)
T1 construct: whole, on cells; HEK293T-mGPRC5D cells; also called mGPRC5D; murine GPRC5D
T1 sequence (looked up): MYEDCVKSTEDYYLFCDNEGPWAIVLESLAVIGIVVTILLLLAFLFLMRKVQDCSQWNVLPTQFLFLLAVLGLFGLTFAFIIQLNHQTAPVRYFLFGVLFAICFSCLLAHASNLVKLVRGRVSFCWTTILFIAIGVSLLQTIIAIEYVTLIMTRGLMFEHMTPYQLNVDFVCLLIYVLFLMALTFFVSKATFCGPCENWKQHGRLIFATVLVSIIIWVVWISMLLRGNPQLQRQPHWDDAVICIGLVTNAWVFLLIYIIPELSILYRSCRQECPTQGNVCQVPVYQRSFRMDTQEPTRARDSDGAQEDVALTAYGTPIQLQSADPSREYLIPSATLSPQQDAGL

B1: 12G12C2 (antibody, V domains shown)
VH: QIQLVQSGPELKMPGETVKISCKASGYTFTTYGLSWVKQAPGKGLKWMGWINTFSGVPIYADDFKGRFAFSLETSASTAYLQINNLKNEDTATYFCARWGIRQRGDYWGQGATLTVSS
VL: QIVLTQSPAIMSASPGEKVTMTCSASSSVSYLHWYQQKSGTSPKRWIYDTSKLASGVPVRFSGSGSETSYSLTISSMEAEDAATYYCQQWTSNPPTFGGGTKLEIK
notes: Mouse monoclonal antibody from hybridoma subclone
B2: ATG596 (antibody, V domains shown)
VH: QVQLVQSGAEVKKPGASVKVSCKASGYSFTGYTMNWVRQAPGQGLEWMGLINPYNSDTNYAQKLQGRVTMTTDTSTSTAYMELRSLRSDDTAVYYCARVALRVALDYWGQGTLVTVSS
VL: DIQMTQSPSSLSASVGDRVTITCKASQNVATHVGWYQQKPGKAPKRLIYSASYRYSGVPSRFSGSGSGTEFTLTISNLQPEDFATYYCQQYNRYPYTFGQGTKLEIK
notes: Human IgG1; also called benchmark antibody ATG596; positive human IgG1 control antibody
B3: 15D6G2 (antibody, V domains shown)
VH: EVQLVESGGDLVKPGGYLRLSCAASGFTFSSHGMSWVRQTPDKRLEWVATISSGGRNTYYPDSVKGRFTISRDNAKNILYLQMSSLKSEDTAMFYCTRHSGDAMDYWGQGTSVTVSS
VL: DILLTQSPAILSVSPGERVSFSCRASQSIGTNIHWYQQRTNGSPRLLIKYASESISGIPSRFSGSGSGTDFTLSINSVESEDIADYYCQQSKSWPTFGGGTKLEIK
notes: as for B1

How the values were obtained:
[1] = biological target: T2, cynomolgus monkey GPRC5D (cynomolgus monkey); test: FACS, HEK293T-cynoGPRC5D cells
T2 construct: whole, on cells; HEK293T-cynoGPRC5D cells; also called cynoGPRC5D
From the text: (§1) The subcloning plates were screened by Mirrorball assay and the subclones with good binding ability were expanded to 24-wells for confirmation tests. The specificity and cross-reactivity of these subclones were confirmed with FACS analysis. Briefly, parental HEK293T, HEK293T cells stably over-expressing human GPRC5D protein (i.e., HEK293T-hGPRC5D), HEK293T cells stably over-expressing cynomolgus monkey GPRC5D protein (i.e., HEK293T-cynoGPRC5D), HEK293T cells stably over-expressing mouse GPRC5D protein (i.e., HEK293T-mGPRC5D), and OPM2 cells were incubated with antibodies produced by each subclone, respectively. Fluorescent dye-conjugated secondary antibody was used to detect the binding of the primary antibody with the cells. Median fluorescence intensity (MFI) was measured by FACS analysis,
(§2) As a result, 21 antibodies were discovered with unique sequences showing positive binding with HEK293T-hGPRC5D and OPM2 cells. Among which, some clones could also bind with HEK293T-cynoGPRC5D and/or HEK293T-mGPRC5D. […] ATG596 was a positive human IgG1 control antibody which comprises a VH region having an amino acid sequence as set forth in SEQ ID NO: 199, and a VL region having an amino acid sequence as set forth in SEQ ID NO: 200.

[2] = biological target: T3, human GPRC5D (human, UniProt Q9NZD1 1-345); test: FACS, HEK293T-hGPRC5D cells; also: test concentration or dose not given here
T3 construct: whole, on cells; also called hGPRC5D; G-protein coupled receptor family C group 5 member D
T3 sequence (Q9NZD1 whole entry): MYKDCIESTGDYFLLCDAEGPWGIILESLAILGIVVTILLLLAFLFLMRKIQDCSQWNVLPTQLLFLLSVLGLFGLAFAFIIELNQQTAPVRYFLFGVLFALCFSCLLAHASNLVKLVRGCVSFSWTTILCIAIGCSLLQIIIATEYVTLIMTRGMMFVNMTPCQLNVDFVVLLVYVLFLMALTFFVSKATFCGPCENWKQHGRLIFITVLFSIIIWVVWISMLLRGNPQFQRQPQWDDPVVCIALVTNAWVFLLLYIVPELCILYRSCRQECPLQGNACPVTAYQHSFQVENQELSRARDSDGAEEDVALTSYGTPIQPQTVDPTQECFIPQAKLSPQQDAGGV
In short: (§3)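 Subclone antibodies incubated with parental or GPRC5D-overexpressing HEK293T cells (human, cynomolgus, mouse) and OPM2 cells; bound antibody detected with fluorescent dye-conjugated secondary antibody. Median fluorescence intensity read by FACS.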

[3] = biological target: T3, human GPRC5D; test: FACS, OPM-2 cells; also: test concentration or dose not given here
In short: as §3

[4] = biological target: T1, mouse GPRC5D; test: FACS, HEK293T-mGPRC5D cells
From the text: as §1, §2

[5] = biological target: T1, mouse GPRC5D; test: FACS, HEK293T-mGPRC5D cells; remark: listed apart in the source
[6] = biological target: T2, cynomolgus monkey GPRC5D; test: FACS, HEK293T-cynoGPRC5D cells; remark: listed apart in the source
In short: as §3

[7] = biological target: T1, mouse GPRC5D; test: FACS, HEK293T-mGPRC5D cells; remark: listed apart in the source
From the text: as §1, §2

[8] = biological target: T2, cynomolgus monkey GPRC5D; test: FACS, HEK293T-cynoGPRC5D cells; remark: listed apart in the source

Binder	% Positive [1] [%]	MFI [1]	% Positive [2] [%]	MFI [2]	% Positive [3] [%]	MFI [3]	% Positive [4] [%]	MFI [4]	EC50 [5] [µM]	Top [5]	% Positive [6] [%]	MFI [6]	% Positive [7] [%]	MFI [7]	EC50 [8] [µM]	Top [8]
B1	96.2	24700	98.7	32100	98.4	1070	99	7080	–	–	–	–	–	–	–	–
B2	98.5	7400	–	–	–	–	98.2	14600	0.0255	45600	98.6	6580	97.3	12400	0.0266	22500
B3	99.7	7760	99.5	32800	99.4	1740	14.6	150	–	–	–	–	–	–	–	–
